# PMC6153280, “Roles of distal aspartate and arginine of B-class dye-decolorizing peroxidase in heterolytic hydrogen peroxide cleavage” (The Journal of Biological Chemistry, 2018)
# B1: WT B-class dye-decolorizing peroxidase from Klebsiella pneumoniae (KpDyP) (enzyme, UniProt A0A0W8ATM9 1-299, looked up)
# chain: MSQVQSGILPEHCRAAIWIEANLKGDVNALREASKIFVDNVATFQAKFPDAKLGAVVAFGNNVWRQLSGGEGADELKDFPVYGKGLAPSTQYDLLIHILSARHEVNFSVAQAALAAFGDAIDVKEEIHGFRWVEERDLSGFVDGTENPAGEETRREVAVIKDGVDAGGSYVFVQRWEHNLKQLNRMSVPDQEMMIGRTKDANEEIDGDERPVTSHLSRVDLKEDGKGLKIVRQSLPYGTASGTHGLYFCAYCARLYNIEQQLLSMFGDTDGKRDAMLRFTKPVTGGYYFAPSLERIQAL
# notes: B-class dye-decolorizing peroxidase (KpDyP), Klebsiella pneumoniae; codon-optimized DNA cloned into pGEX-6P1 with primers that run from the ATG start to the stop codon; about 35 kDa per subunit; One heme b per subunit; also called WT KpDyP; source: E. coli BL21 (DE3) pLysS, purified (GSTrap, on-column HRV 3C cleavage, SEC)
# How the values were obtained:
# [1] = target: KpDyP double variant D143A/R232A (Klebsiella pneumoniae); experiment: SEC-MALS; HPLC-SEC combined with multiangle light scattering; data not shown; conditions not given
# [2] = target: KpDyP variant R232A (Klebsiella pneumoniae); experiment: as above
# [3] = target: Asp143 (UniProt position 143, LSGFVDGTENP); experiment: kinetics; conditions: 25 °C; 2 µM enzyme in 5 mM phosphate citrate buffer, pH 7.0, mixed with H2O2 in 100 mM phosphate citrate buffer, pH 3.0-8.0, or 100 mM glycine NaOH buffer, pH 8.0-10.0; ferric high-spin resting enzyme, folded, reacting with H2O2
# [4] = target: KpDyP variant D143A (Klebsiella pneumoniae); experiment: SEC-MALS; HPLC-SEC combined with multiangle light scattering; data not shown; conditions not given
# [5] = target: the molecule itself; experiment: as above
molecule,measurement,setting,value
KpDyP double variant D143A/R232A (enzyme),stoichiometry N,[1],2
KpDyP variant R232A (enzyme),stoichiometry N,[2],2
B-class dye-decolorizing peroxidase (KpDyP) (Klebsiella pneumoniae),pKa,[3],far below 4.0
KpDyP variant D143A (enzyme),stoichiometry N,[4],2
B1,stoichiometry N,[5],2
